Laboratory results reported in patent publication US20210380714A1.

Experiments:
[1] = target: native human MSLN expressed on the cell surface (N87 / NCI-N87 tumor cells) (human) (UniProt Q13421); experiment: KinExA on N87 cells compared with Biacore on rHuMSLN sol.
[2] = target: recombinant human soluble MSLN (rHuMSLN sol.) (human) (UniProt Q13421); experiment: Biacore; 237 captured on the sensor chip, rHuMSLN sol. in solution
[3] = target: native human MSLN expressed on the cell surface (N87 / NCI-N87 tumor cells) (human) (UniProt Q13421); experiment: KinExA equilibrium binding to N87 tumor cells expressing native human MSLN
[4] = target: recombinant human soluble MSLN (rHuMSLN sol.) (human) (UniProt Q13421); experiment: Biacore, soluble human MSLN
[5] = target: native human MSLN expressed on the cell surface (N87 / NCI-N87 tumor cells) (human) (UniProt Q13421); experiment: KinExA, native hu MSLN on cells

Sequence of recombinant human soluble MSLN (rHuMSLN sol.) (human) (Q13421 296-606 limits assumed): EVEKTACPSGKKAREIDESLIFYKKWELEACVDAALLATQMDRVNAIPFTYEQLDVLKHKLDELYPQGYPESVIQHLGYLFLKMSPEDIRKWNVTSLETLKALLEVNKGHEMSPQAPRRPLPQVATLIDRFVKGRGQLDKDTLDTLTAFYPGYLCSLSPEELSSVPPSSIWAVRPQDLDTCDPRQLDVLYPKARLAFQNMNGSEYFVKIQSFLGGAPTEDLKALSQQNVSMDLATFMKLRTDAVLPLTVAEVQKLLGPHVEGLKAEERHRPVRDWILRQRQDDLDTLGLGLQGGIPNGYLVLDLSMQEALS
Sequence of native human MSLN expressed on the cell surface (N87 / NCI-N87 tumor cells) (human) (Q13421 296-606 limits assumed): as above

Binder	fold better binding than to soluble MSLN [1] [fold]	Kd [2] [pM]	Kd [3] [pM]	Kd [4] [pM]	Kd [5] [pM]
Ab237 (Hu-anti-huMesothelin-2.37-IgG1) (antibody, V domains shown) VH: QVQLQESGPGLVKPSQTLSLTCTVSGGSINNNNYYWTWIRQHPGKGLEWIGYIYYSGSTFYNPSLKSRVTISVDTSKTQFSLKLSSVTAADTAVYYCAREDTMTGLDVWGQGTTVTVSS VL: DIQMTQSPSSLSASVGDRVTITCRASQSINNYLNWYQQKPGKAPTLLIYAASSLQSGVPSRFSGSRSGTDFTLTISSLQPEDFAAYFCQQTYSNPTFGQGTKVEVK	30	97	3.5		
151 (antibody, V domains shown) VH: QVQLQESGPGLVKPSETLSLTCTVSGGSISSYYWSWIRQPPGKGLEWIGYIYYSGSTNYNPSLKSRVTISVDTSKNQFSLKLSSVTAADTAVYYCARVDYKAFDIWGQGTMVTVSS VL: DIQMTQSPSSLSASVGDRVTITCRASQGIRNDLHWYQQKPGKAPKRLIYAASSLQSGVPSRFSGSGSGTEFTLTISSLQPEDFATYYCLQHYSYPWTFGQGTKVEIK				17400	30

Further lines, results first:

fold better binding than to soluble MSLN [1] [fold]	Kd [2] [pM]	Kd [3] [pM]	Kd [4] [pM]	Kd [5] [pM]	Binder
			2400	12.2	158.3 (antibody, V domains shown) VH: QVQLQESGPGLVKPSETLSLTCTVSGGSIISHYWSWIRQPPGKGLEWIGYIYYSGSTNYNPSLKSRVTISVDTSKNQFSLKLTSVTAADTAVYYCARDGWSAFDYWGQGTLVTVSS VL: DIQMTQSPSSLSASVGDRVTITCRASQGIRNALGWYQQKPGKAPKRLIYAASSLQSGVPSRFSGSGSGTEFTLTISSLQPEDFATYYCLQHNSYPRTFGQGTKVEIRR
			965		1.33.1 (antibody, V domains shown) VH: QVQLQESGPGLVKPSQTLSLTCTVSGGSISGDGHFWSWIRQHPGKGLEWIGYIYYSGSTYYNPSLKSRVTISVDTSKNQFSLKLSSVTAADTAVYYCARLRGGYKFDYWGQGTLVTVSS VL: DIVMTQTPLSLSVAPGQPASISCQSSLSLQHSNGKTYLYWYLQKPGQPPQLLIYEVSNRFSGVPDRFSGSGSGTDFTLKISRVEAEDVGIYYCMQSKQLPCSFGQGTKLEIK
